The values below come from publication PMC13638050.

The term pKd denotes the Kd on a negative log10 scale, so that one unit is a factor of ten.

pKd: −log10 of the molar value.

Experiment [1] concerns the target influenza B/Lee/1940 (B/Lee40) HA (influenza B virus B/Lee/1940). The experiment is described as follows: BLI. On the technique in general: Biolayer interferometry detects binding as a change in optical thickness at a sensor tip.
Experiment [2] concerns the target H3N2 A/Singapore/INFIMH-16-0019/2016 (H3/Sing16) HA (influenza A virus H3N2 A/Singapore/INFIMH-16-0019/2016). Kind of experiment: BLI.

Chain of influenza B/Lee/1940 (B/Lee40) HA (influenza B virus B/Lee/1940) (P03460 16-552 limits assumed): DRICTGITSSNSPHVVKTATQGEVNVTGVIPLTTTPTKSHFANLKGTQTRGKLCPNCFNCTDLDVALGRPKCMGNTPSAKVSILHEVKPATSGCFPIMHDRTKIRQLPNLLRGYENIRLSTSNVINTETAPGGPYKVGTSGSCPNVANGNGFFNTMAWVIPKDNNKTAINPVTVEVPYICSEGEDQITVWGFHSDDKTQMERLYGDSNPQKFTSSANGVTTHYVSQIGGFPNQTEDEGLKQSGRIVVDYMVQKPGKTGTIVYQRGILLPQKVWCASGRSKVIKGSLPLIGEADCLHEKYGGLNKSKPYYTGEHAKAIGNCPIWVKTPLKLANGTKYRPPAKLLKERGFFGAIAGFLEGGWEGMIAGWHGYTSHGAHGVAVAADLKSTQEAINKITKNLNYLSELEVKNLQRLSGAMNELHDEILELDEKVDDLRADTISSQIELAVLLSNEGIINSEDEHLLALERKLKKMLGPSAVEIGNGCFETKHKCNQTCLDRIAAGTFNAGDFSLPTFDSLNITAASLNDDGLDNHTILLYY

Turning to somatic CR9114 Fab, the pKd is 6.96 in experiment [1] and 7.44 in experiment [2].
